Residue numbers refer to the chain shown, from its start. Numbers in names are those of the source.
Assays:
[1] = biological target: EGFP-tagged full-length Drosophila Notch [Drosophila melanogaster]; assay: luciferase-coupled co-immunoprecipitation (GFP-trap); details: S2 cells, Notch-GFP WT, n=4, parent: 1, read off a plot
[2] = biological target: T1, Drosophila Notch LNR domain F1563A fused to split firefly luciferase fragments, P07207; assay: split-luciferase complementation assay; details: chain shown with the change; S2 cells; bar labelled 'F1563A + F1563A'; n=5; parent: 1.0; read off a plot
T1 chain: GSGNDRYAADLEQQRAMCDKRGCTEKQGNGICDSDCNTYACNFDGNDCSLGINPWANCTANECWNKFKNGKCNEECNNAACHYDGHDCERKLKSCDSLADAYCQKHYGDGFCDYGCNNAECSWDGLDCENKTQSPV

[3] = biological target: T2, Drosophila Notch LNR domain H1570A fused to split firefly luciferase fragments, P07207; assay: split-luciferase complementation assay; details: chain shown with the change; S2 cells; bar labelled 'H1570A + H1570A'; n=5; parent: 1.0; read off a plot
T2 chain: T1 chain with A99F, H106A

Work on “luciferase-tagged Drosophila Notch LNR domain (residues G1465 to V1600) mutant F1563A [Drosophila melanogaster] / EGFP-tagged full-length Drosophila Notch [Drosophila melanogaster] chain 1 F99A” yielded a ratio to parent ([1]; LNR-Luc F1563A) of 1.1.

“luciferase-tagged Drosophila Notch LNR domain (residues G1465 to V1600) mutant H1570A [Drosophila melanogaster] / EGFP-tagged full-length Drosophila Notch [Drosophila melanogaster] chain 1 H106A” was tested, and the ratio to parent ([1]; LNR-Luc H1570A) was 0.97.

B1: Drosophila Notch LNR domain fused to split firefly luciferase fragments (LNR–NLuc and LNR–CLuc), P07207 F1563A (N-Luc copy); F1563A (C-Luc copy) (protein)
chain: T1 chain
B1 was tested, and the ratio to parent [2] was 0.96.

B2: Drosophila Notch LNR domain fused to split firefly luciferase fragments (LNR–NLuc and LNR–CLuc), P07207 H1570A (N-Luc copy); H1570A (C-Luc copy) (protein)
chain: T1 chain with A99F, H106A
Work on B2 yielded a ratio to parent [3] of 0.87.

Source: PMC13436963
